Reference: the nanobody polyreactivity screen of Harvey et al. (2022)

Assay: yeast display, Sf9 membrane polyspecificity reagent, FACS + sequencing; frameworks hold sequencing errors
How it was run: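 Using colony PCR, genes from sorted yeast display clones were amplified, then sequenced on MiSeq at 2 × 250 and filtered by CDR length. The clones had been stained with 10% biotinylated, detergent-solubilized Sf9 membrane reagent for 1 hour at 4 °C and sorted by FACS into low and high (top ~1%) gates on anti-HA and streptavidin fluorescence. Polyreactivity labels come from the gate of origin.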

## QVQLVESGGGLVQAGGSLRLSCAASGSTFFLYAMGCYRQAPGNERELVAAISWRGASTYYADSVNGSFTISRDNAKNSVYLQMNSLKPDDTAVYYCAADLLPLYDDWGQGTQVTVSS
  polyreactivity (PSR sort gate): high polyreactivity

## QVQLVESGGGLVQAGGSLRLSCAASGSTFFLYAMGWYRQAPGKERELVAAITYTDGDTYYADSVKGRFTISRDIAKKTVYLQMNSLKPEDTAVYYCAADSWVQFDYWGQGTQVSVSS
  polyreactivity (PSR sort gate): low polyreactivity

## QVQLVESGGGLVQAGGSLRLSCAASGSTFFRNAMGWYRQAPGKERELVAAISKSGTSTYYADSVKGRFTISRDNAKNNVYLQMNSLKPEDTAVYYCAKYGFCYPQSYAYYYWGQGTQVTVSS
  polyreactivity (PSR sort gate): high polyreactivity

## QVQLVESGGGLVQAGGSLRLSCAASGSTFFRYAMGWYRQAPGKEREFVAAITSSGGNTYYADSVKGRFTISRDNAKNTVYFQMNSLKPEDTAVYYCAAVWYSPYVKYNYWGQGTQVTVSS
  polyreactivity (PSR sort gate): low polyreactivity

## QVQLVESGGGLVQAGGSLRLSCAASGSTFFRYAMGWYRQAPGKERELVAAISKSGASTYYADSVKGRFTISRDNAKNTVYLQMNSLKPEDTAVYYCNADVKKSSAREWQYGYDYWGQGTQVTVSS
  polyreactivity (PSR sort gate): low polyreactivity

## QVQLVESGGGLVQAGGSLRLSCAASGSTFFRYAMGWYRQAPGKERELVAAISKSGGTTSYADSVKGRITISRDNAKNTVYLQMNSLKQEDTAVYYCAARVQHIYDWGQGTQVTVSS
  polyreactivity (PSR sort gate): high polyreactivity

## QVQLVESGGGLVQAGGSLRLSCAASGSTFFRYAMGWYRQAPGKERELVAVINRGGSTYYADSVKGRFTISRDNAKNTVYLQMNSLKPEDTAVYYCAKRVFYPGAYRYYYWGQGTQVTVSS
  polyreactivity (PSR sort gate): high polyreactivity

## QVQLVESGGGLVQAGGSLRLSCAASGSTFFSNAMGWYRQAPGKERELVATIRVGGGSTYADSVKGRFTISRDNAKNTVYLQMNSLKPEDTADYYCAADDSDTRYTRSRYGYWGQGTQVTVSS
  polyreactivity (PSR sort gate): low polyreactivity

## QVQLVESGGGLVQAGGSLRLSCAASGSTFFSYAMGWYRQAPGKERELVAAITSNGGTTHYADSVKGRFTISRDNAKNTVYLQMNSLKPEDTADYYCAKAQGHVRGSRGLQGGRYDYWGQGTQVTVSS
  polyreactivity (PSR sort gate): low polyreactivity

## QVQLVESGGGLVQAGGSLRLSCAASGSTFFTNAMGWYRQAPGKERELVAAINFRGSTYYADSVKGRFTISRDNAKNTVYLQMNSLKPEDTAVYYCATDRQRSYRTVRSPIFNYWGQGTQVTVSS
  polyreactivity (PSR sort gate): high polyreactivity

## QVQLVESGGGLVQAGGSLRLSCAASGSTFFTNAMGWYRQAPGKERELVAGISYGGGRTYYADSVKGRFTISLDNAKNTVYLQMNRLKPEDTAVYYCNTVTSQAPYYSYVSWGQGTQVTVSS
  polyreactivity (PSR sort gate): high polyreactivity

## QVQLVESGGGLVQAGGSLRLSCAASGSTFFTNAMGWYRQAPGKERELVATITWSGGSTYADSVKGRFTISRDNAKNTVYLQMNSLKPEDTAVYYCAAESSSYWGDLGGALWLYDYWGQGTQVTVSS
  polyreactivity (PSR sort gate): low polyreactivity

## QVQLVESGGGLVQAGGSLRLSCAASGSTFFVNAMGWYRQAPGKERELVAAISTSGGRTYYADSVKGRFTISRDNAKNTVYLQMNSLKPEDTAVYYCAAFLRSPKGYYYWGQGTQVTVSS
  polyreactivity (PSR sort gate): high polyreactivity

## QVQLVESGGGLVQAGGSLRLSCAASGSTFFVNAMGWYRQPPGKERELVAAISTSGGRTYYADSVKGRFTISRDNAKNTVYLQMNSLKPEDTAVYYCAAYLRSPKGYYYWGQGTQVTVSS
  polyreactivity (PSR sort gate): high polyreactivity

## QVQLVESGGGLVQAGGSLRLSCAASGSTFFVYDMGWYRQAPGKERELVAAISISDGGTYYADSVKGRFTISRDNAKNTVYLQMNSQKPVDTAVYYCAADYSERYFRGYDYWGQGTQVTVSS
  polyreactivity (PSR sort gate): low polyreactivity

## QVQLVESGGGLVQAGGSLRLSCAASGSTFFYSMGWYRKAPRKERELVAAISWIDSITYYADSVKGRFTISRDNAKNTVYLQMNSLKPEDIAVYYCAAEGQNEGYDYWVQGTQVTVSS
  polyreactivity (PSR sort gate): high polyreactivity

## QVQLVESGGGLVQAGGSLRLSCAASGSTFFYYAMGWYRQAPGKERELVAAISRNGGSTYYADSVKGRFTISRDNAKNTVYLQMNSLKPEDTAVYYCNAYNLAGRYFDYWGQGTQVTVSS
  polyreactivity (PSR sort gate): high polyreactivity

## QVQLVESGGGLVQAGGSLRLSCAASGSTFFYYAMVWYRQAPGKERELVAAISQSSASTYYADSVKGRFTISRDNAKNTVYLQMNSLKPEDTAVYYCAAARGYWWYDYWGQGTQVTVSS
  polyreactivity (PSR sort gate): high polyreactivity

## QVQLVESGGGLVQAGGSLRLSCAASGSTFGANAMGWYRQAPGKEREFVAAISRSGVRTYYADTVKGRFTMSRDNAKITVYFQMNSLKPEDTAVYYCAADGYWWTYTRYDYWGQGTQVTVSS
  polyreactivity (PSR sort gate): low polyreactivity

## QVQLVESGGGLVQAGGSLRLSCAASGSTFGAYAMGWYRQAPGKERELVAAINRGTSTNYADSVKGRFTISRDNAKNTVYLQMNSLKPEDTAVYYCAVAVLPWQLYSESYAEYDYWGQGTQVTVSS
  polyreactivity (PSR sort gate): low polyreactivity

## QVQLVESGGGLVQAGGSLRLSCAASGSTFGAYVMGWSRQAPGKERELVAGITYSGGTTYYAYSVKGRFTISRDNSKNTVYLQMNILKPEDTAVYYCNVSQHYSRRLKKWQMDYWGQGTQVTVSS
  polyreactivity (PSR sort gate): high polyreactivity

## QVQLVESGGGLVQAGGSLRLSCAASGSTFGDNAMGWYRQAPGKEREFVATISWDTATTYYADSVKARFTISRDNAKNTVYLQMNSLKPEDTAVYYCAARATAYYTVPSYADVDYWGQGTQVTVSS
  polyreactivity (PSR sort gate): low polyreactivity

## QVQLVESGGGLVQAGGSLRLSCAASGSTFGDNAMGWYRQAPGKERELVARISSGGNTYYADSVKGRFTISRDNAKNTVYLQMNSLKPEFTAVYYCAADIIVRYKKFPYYYWGQGTQVNVSS
  polyreactivity (PSR sort gate): high polyreactivity

## QVQLVESGGGLVQAGGSLRLSCAASGSTFGDYAMGWYRQAPGKERELVAAISRSAGSTYYADSVKGRFTISRDNAKNTVYLQMNSLKPEDTAVYYCAAEYQYHWAYIYYYWGQGTQVTVSS
  polyreactivity (PSR sort gate): high polyreactivity

## QVQLVESGGGLVQAGGSLRLSCAASGSTFGDYAMGWYRQGPGKERELVASINQNGGDTYYADSVKGRFTISRDNAKNTVYLQMNSLKPEDTAVYYCAAEAGYYFQTVAIDMGYWGQGTQVTVSS
  polyreactivity (PSR sort gate): low polyreactivity

## QVQLVESGGGLVQAGGSLRLSCAASGSTFGEYAMGWYRQAPGKERELVAAISWSGDTTYYADSVKGRFTISRDNAKNTVYLQMNSLKPEDTAVYYCAARDYDRVGEDYWGQGTQVTVSS
  polyreactivity (PSR sort gate): low polyreactivity

## QVQLVESGGGLVQAGGSLRLSCAASGSTFGFNAMGWYRQAPGKERELVAAITKSGGSTYYADSVKGRFTISRDNAKNTVYLQMNSLKPEDTAVYYCAARRSGRKYDYWGQGTQVTVSS
  polyreactivity (PSR sort gate): high polyreactivity

## QVQLVESGGGLVQAGGSLRLSCAASGSTFGFNVMGWYRQAPGKERELVAVITSDGNTYYADSVKGRFTISRDNAKNTVYFQMNSLIPEDTAVYYCAVSELGTPYGYWGQGTQVTVSS
  polyreactivity (PSR sort gate): low polyreactivity

## QVQLVESGGGLVQAGGSLRLSCAASGSTFGFYAMGWYRQAPGKERELVAAITASGDSTYYADSVKGRFTISRDNAKNTVYLQMNSLKPEDTAVYYCNAVWRYYRKRRAGDFGYWGQGTQVTVSS
  polyreactivity (PSR sort gate): low polyreactivity

## QVQLVESGGGLVQAGGSLRLSCAASGSTFGFYAMGWYRQAPGKERELVAAITGGGSTNYADSVKGRFTISRDNAKNTVYLQMNSLNPEDTAVYYCAVVQRYWYPGIVPYDYWGQGTQVTVSS
  polyreactivity (PSR sort gate): high polyreactivity

## QVQLVESGGGLVQAGGSLRLSCAASGSTFGGNAMGWYRQAPGKERELVAAIDSGGGTNYADSVKGRFTISRDNAKNTVYLQMNSLKPEDTAVYYCNADWAVRSTQNSSSGHVYWGQGTQVTVSS
  polyreactivity (PSR sort gate): low polyreactivity
